{"source": "IntAct's records for PubMed 31515488", "parents": {"B1": {"name": "Histone-lysine N-methyltransferase SMYD1 (Homo sapiens), Q8NB12 (parent)", "chain": "MTIGRMENVEVFTAEGKGRGLKATKEFWAADIIFAERAYSAVVFDSLVNFVCHTCFKRQEKLHRCGQCKFAHYCDRTCQKDAWLNHKNECSAIKRYGKVPNENIRLAARIMWRVEREGTGLTEGCLVSVDDLQNHVEHFGEEEQKDLRVDVDTFLQYWPPQSQQFSMQYISHIFGVINCNGFTLSDQRGLQAVGVGIFPNLGLVNHDCWPNCTVIFNNGNHEAVKSMFHTQMRIELRALGKISEGEELTVSYIDFLNVSEERKRQLKKQYYFDCTCEHCQKKLKDDLFLGVKDNPKPSQEVVKEMIQFSKDTLEKIDKARSEGLYHEVVKLCRECLEKQEPVFADTNIYMLRMLSIVSEVLSYLQAFEEASFYARRMVDGYMKLYHPNNAQLGMAVMRAGLTNWHAGNIEVGHGMICKAYAILLVTHGPSHPITKDLEAMRVQTEMELRMFRQNEFMYYKMREAALNNQPMQVMAEPSNEPSPALFHKKQ", "partner": "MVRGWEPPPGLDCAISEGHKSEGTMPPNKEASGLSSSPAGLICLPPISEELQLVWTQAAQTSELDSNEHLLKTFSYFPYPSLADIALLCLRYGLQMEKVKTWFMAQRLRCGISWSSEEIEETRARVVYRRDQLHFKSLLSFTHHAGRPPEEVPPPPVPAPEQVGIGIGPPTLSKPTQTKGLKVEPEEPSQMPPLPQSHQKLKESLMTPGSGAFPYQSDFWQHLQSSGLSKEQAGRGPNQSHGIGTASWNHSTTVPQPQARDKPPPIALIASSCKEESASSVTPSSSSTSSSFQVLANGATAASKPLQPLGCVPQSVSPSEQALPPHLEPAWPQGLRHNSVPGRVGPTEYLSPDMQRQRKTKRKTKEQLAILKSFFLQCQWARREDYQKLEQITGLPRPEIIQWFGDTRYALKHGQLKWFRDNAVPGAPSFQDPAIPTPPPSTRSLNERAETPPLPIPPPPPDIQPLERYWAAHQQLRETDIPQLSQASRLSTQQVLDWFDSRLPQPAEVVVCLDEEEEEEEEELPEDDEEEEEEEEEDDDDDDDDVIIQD"}, "B2": {"name": "Keratin-associated protein 5-9 (Homo sapiens), P26371 (parent)", "chain": "MGCCGCSGGCGSSCGGCDSSCGSCGSGCRGCGPSCCAPVYCCKPVCCCVPACSCSSCGKRGCGSCGGSKGGCGSCGCSQCSCCKPCCCSSGCGSSCCQCSCCKPYCSQCSCCKPCCSSSGRGSSCCQSSCCKPCCSSSGCGSSCCQSSCCKPCCSQSRCCVPVCYQCKI", "partner": "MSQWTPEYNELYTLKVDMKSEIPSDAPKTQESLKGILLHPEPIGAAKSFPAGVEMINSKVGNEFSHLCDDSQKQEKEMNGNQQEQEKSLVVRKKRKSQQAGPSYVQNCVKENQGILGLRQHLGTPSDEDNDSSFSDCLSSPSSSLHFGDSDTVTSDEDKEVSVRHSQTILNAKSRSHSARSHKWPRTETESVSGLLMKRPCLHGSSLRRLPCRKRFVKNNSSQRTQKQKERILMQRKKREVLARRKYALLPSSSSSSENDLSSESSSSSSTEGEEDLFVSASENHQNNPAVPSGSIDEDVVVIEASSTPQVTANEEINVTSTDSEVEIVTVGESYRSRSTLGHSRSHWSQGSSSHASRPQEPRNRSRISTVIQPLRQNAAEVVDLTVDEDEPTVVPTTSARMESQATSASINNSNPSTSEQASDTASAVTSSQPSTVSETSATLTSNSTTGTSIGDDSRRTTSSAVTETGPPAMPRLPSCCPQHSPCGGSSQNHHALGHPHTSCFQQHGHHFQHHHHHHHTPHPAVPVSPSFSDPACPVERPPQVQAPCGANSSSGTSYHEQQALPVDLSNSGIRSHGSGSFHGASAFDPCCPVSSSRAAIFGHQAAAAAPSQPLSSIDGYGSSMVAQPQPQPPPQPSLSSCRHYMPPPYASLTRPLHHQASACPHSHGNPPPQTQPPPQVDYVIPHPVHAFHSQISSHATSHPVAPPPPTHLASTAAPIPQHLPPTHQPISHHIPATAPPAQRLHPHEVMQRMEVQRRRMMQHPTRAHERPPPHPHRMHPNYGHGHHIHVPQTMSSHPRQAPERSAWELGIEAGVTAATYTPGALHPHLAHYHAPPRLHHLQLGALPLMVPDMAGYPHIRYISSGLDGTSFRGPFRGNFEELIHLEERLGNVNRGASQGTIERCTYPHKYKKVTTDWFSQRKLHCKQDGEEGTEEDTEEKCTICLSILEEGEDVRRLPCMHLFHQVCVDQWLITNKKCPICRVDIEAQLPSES"}, "B3": {"name": "Zinc finger protein Aiolos (Homo sapiens), Q9UKT9 (parent)", "chain": "MEDIQTNAELKSTQEQSVPAESAAVLNDYSLTKSHEMENVDSGEGPANEDEDIGDDSMKVKDEYSERDENVLKSEPMGNAEEPEIPYSYSREYNEYENIKLERHVVSFDSSRPTSGKMNCDVCGLSCISFNVLMVHKRSHTGERPFQCNQCGASFTQKGNLLRHIKLHTGEKPFKCHLCNYACQRRDALTGHLRTHSVEKPYKCEFCGRSYKQRSSLEEHKERCRTFLQSTDPGDTASAEARHIKAEMGSERALVLDRLASNVAKRKSSMPQKFIGEKRHCFDVNYNSSYMYEKESELIQTRMMDQAINNAISYLGAEALRPLVQTPPAPTSEMVPVISSMYPIALTRAEMSNGAPQELEKKSIHLPEKSVPSERGLSPNNSGHDSTDTDSNHEERQNHIYQQNHMVLSRARNGMPLLKEVPRSYELLKPPPICPRDSVKVINKEGEVMDVYRCDHCRVLFLDYVMFTIHMGCHGFRDPFECNMCGYRSHDRYEFSSHIARGEHRALLK", "partner": "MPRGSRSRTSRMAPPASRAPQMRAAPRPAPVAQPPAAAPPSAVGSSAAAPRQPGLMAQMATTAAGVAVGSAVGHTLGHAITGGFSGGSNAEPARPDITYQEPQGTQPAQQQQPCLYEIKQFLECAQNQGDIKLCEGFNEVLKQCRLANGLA"}, "B4": {"name": "Coiled-coil domain-containing protein 92 (Homo sapiens), Q53HC0 (parent)", "chain": "MTSPHFSSYDEGPLDVSMAATNLENQLHSAQKNLLFLQREHASTLKGLHSEIRRLQQHCTDLTYELTVKSSEQTGDGTSKSSELKKRCEELEAQLKVKENENAELLKELEQKNAMITVLENTIKEREKKYLEELKAKSHKLTLLSSELEQRASTIAYLTSQLHAAKKKLMSSSGTSDASPSGSPVLASYKPAPPKDKLPETPRRRMKKSLSAPLHPEFEEVYRFGAESRKLLLREPVDAMPDPTPFLLARESAEVHLIKERPLVIPPIASDRSGEQHSPAREKPHKAHVGVAHRIHHATPPQAQPEVKTLAVDQVNGGKVVRKHSGTDRTV", "partner": "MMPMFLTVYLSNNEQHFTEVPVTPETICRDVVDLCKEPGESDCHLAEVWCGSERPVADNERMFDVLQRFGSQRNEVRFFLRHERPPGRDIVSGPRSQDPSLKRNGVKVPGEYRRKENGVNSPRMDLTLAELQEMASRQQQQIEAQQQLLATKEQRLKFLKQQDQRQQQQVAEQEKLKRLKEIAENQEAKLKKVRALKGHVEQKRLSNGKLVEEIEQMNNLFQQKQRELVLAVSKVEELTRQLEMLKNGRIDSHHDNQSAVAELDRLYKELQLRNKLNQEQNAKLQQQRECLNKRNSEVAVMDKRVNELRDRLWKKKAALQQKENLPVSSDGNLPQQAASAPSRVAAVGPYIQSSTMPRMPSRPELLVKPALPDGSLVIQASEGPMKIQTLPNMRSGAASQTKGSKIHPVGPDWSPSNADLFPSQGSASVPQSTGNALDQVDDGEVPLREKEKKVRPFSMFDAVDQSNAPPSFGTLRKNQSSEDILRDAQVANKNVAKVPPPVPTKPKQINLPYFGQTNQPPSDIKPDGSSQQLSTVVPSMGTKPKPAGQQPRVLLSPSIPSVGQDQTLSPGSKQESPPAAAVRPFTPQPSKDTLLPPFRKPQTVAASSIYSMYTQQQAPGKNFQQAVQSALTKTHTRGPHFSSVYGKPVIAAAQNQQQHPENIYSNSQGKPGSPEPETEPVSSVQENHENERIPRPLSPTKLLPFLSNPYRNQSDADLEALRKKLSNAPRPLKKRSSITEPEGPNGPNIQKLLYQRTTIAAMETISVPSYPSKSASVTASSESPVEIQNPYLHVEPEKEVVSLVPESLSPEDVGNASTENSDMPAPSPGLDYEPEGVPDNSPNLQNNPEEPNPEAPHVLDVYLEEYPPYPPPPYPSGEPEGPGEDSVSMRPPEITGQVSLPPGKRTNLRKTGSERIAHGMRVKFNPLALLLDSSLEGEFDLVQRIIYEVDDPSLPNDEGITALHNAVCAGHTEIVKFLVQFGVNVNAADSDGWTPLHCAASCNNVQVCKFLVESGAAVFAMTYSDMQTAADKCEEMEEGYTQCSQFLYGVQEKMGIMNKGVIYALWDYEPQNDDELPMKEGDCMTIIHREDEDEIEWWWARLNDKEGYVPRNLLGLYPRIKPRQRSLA"}}}
{"variants_of": "B1", "conditions": "with homez_human HOMEZ"}
{"variant": "R441W", "effect of a mutation on the interaction": "with no effect"}
{"variants_of": "B2", "conditions": "with rn111_human RNF111, Q6ZNA4"}
{"variant": "Y40C", "effect of a mutation on the interaction": "with no effect"}
{"variants_of": "B3", "conditions": "with chch2_human CHCHD2, Q9Y6H1"}
{"variant": "N119D", "effect of a mutation on the interaction": "with no effect"}
{"variant": "A24V", "effect of a mutation on the interaction": "with no effect"}
{"variants_of": "B4", "conditions": "with aspp2_human TP53BP2, Q13625"}
{"variant": "S70C", "effect of a mutation on the interaction": "with no effect"}
